In publication PMC3101628 (Nature structural & molecular biology, 2011):
Like-named read-outs stand apart in the source and are kept apart here.

B4: S. cerevisiae ribonucleotide reductase RR1 (ScRR1), wild type (enzyme)
chain: MYVYKRDGRKEPVQFDKITARISRLCYGLDPKHIDAVKVTQRIISGVYEGVTTIELDNLAAETCAYMTTVHPDYATLAARIAISNLHKQTTKQFSKVVEDLYRYVNAATGKPAPMISDDVYNIVMENKDKLNSAIVYDRDFQYSYFGFKTLERSYLLRINGQVAERPQHLIMRVALGIHGRDIEAALETYNLMSLKYFTHASPTLFNAGTPKPQMSSCFLVAMKEDSIEGIYDTLKECALISKTAGGIGLHIHNIRSTGSYIAGTNGTSNGLIPMIRVFNNTARYVDQGGNKRPGAFALYLEPWHADIFDFIDIRKNHGKEEIRARDLFPALWIPDLFMKRVEENGTWTLFSPTSAPGLSDCYGDEFEALYTRYEKEGRGKTIKAQKLWYSILEAQTETGTPFVVYKDACNRKSNQKNLGVIKSSNLCCEIVEYSAPDETAVCNLASVALPAFIETSEDGKTSTYNFKKLHEIAKVVTRNLNRVIDRNYYPVEEARKSNMRHRPIALGVQGLADTFMLLRLPFDSEEARLLNIQIFETIYHASMEASCELAQKDGPYETFQGSPASQGILQFDMWDQKPYGMWDWDTLRKDIMKHGVRNSLTMAPMPTASTSQILGYNECFEPVTSNMYSRRVLSGEFQVVNPYLLRDLVDLGIWDEGMKQYLITQNGSIQGLPNVPQELKDLYKTVWEISQKTIINMAADRSVYIDQSHSLNLFLRAPTMGKLTSMHFYGWKKGLKTGMYYLRTQAASAAIQFTIDQKIADQATENVADISNLKRPSYMPSSASYAASDFVPAAVTANATIPSLDSSSEASREASPAPTGSHSLTKGMAELNVQESKVEVPEVPAPTKNEEKAAPIVDDEETEFDIYNSKVIACAIDNPEACEMCSG

Legend:
SEC [1] = target: the molecule itself; assay: SEC
SEC-MALS = target: the molecule itself; assay: SEC-MALS
[2] = target: the molecule itself
SEC [3] = target: the molecule itself; assay: SEC; remark: listed apart in the source
SEC [4] = target: the molecule itself; assay: SEC; remark: listed apart in the source
SEC [5] = target: the molecule itself; assay: SEC; remark: listed apart in the source
[6] = target: B4; assay: SEC

B1: hRRM1 D16R (enzyme, human, UniProt P23921 1-792, looked up)
chain: MHVIKRDGRQERVMFRKITSRIQKLCYGLNMDFVDPAQITMKVIQGLYSGVTTVELDTLAAETAATLTTKHPDYAILAARIAVSNLHKETKKVFSDVMEDLYNYINPHNGKHSPMVAKSTLDIVLANKDRLNSAIIYDRDFSYNYFGFKTLERSYLLKINGKVAERPQHMLMRVSVGIHKEDIDAAIETYNLLSERWFTHASPTLFNAGTNRPQLSSCFLLSMKDDSIEGIYDTLKQCALISKSAGGIGVAVSCIRATGSYIAGTNGNSNGLVPMLRVYNNTARYVDQGGNKRPGAFAIYLEPWHLDIFEFLDLKKNTGKEEQRARDLFFALWIPDLFMKRVETNQDWSLMCPNECPGLDEVWGEEFEKLYASYEKQGRVRKVVKAQQLWYAIIESQTETGTPYMLYKDSCNRKSNQQNLGTIKCSNLCTEIVEYTSKDEVAVCNLASLALNMYVTSEHTYDFKKLAEVTKVVVRNLNKIIDINYYPVPEACLSNKRHRPIGIGVQGLADAFILMRYPFESAEAQLLNKQIFETIYYGALEASCDLAKEQGPYETYEGSPVSKGILQYDMWNVTPTDLWDWKVLKEKIAKYGIRNSLLIAPMPTASTAQILGNNESIEPYTSNIYTRRVLSGEFQIVNPHLLKDLTERGLWHEEMKNQIIACNGSIQSIPEIPDDLKQLYKTVWEISQKTVLKMAAERGAFIDQSQSLNIHIAEPNYGKLTSMHFYGWKQGLKTGMYYLRTRPAANPIQFTLNKEKLKDKEKVSKEEEEKERNTAAMVCSLENRDECLMCGS
stoichiometry N (SEC [1]): 6
stoichiometry N (SEC-MALS): 2

B2: ScRR1 D182R (enzyme, S. cerevisiae)
chain: MYVYKRDGRKEPVQFDKITARISRLCYGLDPKHIDAVKVTQRIISGVYEGVTTIELDNLAAETCAYMTTVHPDYATLAARIAISNLHKQTTKQFSKVVEDLYRYVNAATGKPAPMISDDVYNIVMENKDKLNSAIVYDRDFQYSYFGFKTLERSYLLRINGQVAERPQHLIMRVALGIHGRRIEAALETYNLMSLKYFTHASPTLFNAGTPKPQMSSCFLVAMKEDSIEGIYDTLKECALISKTAGGIGLHIHNIRSTGSYIAGTNGTSNGLIPMIRVFNNTARYVDQGGNKRPGAFALYLEPWHADIFDFIDIRKNHGKEEIRARDLFPALWIPDLFMKRVEENGTWTLFSPTSAPGLSDCYGDEFEALYTRYEKEGRGKTIKAQKLWYSILEAQTETGTPFVVYKDACNRKSNQKNLGVIKSSNLCCEIVEYSAPDETAVCNLASVALPAFIETSEDGKTSTYNFKKLHEIAKVVTRNLNRVIDRNYYPVEEARKSNMRHRPIALGVQGLADTFMLLRLPFDSEEARLLNIQIFETIYHASMEASCELAQKDGPYETFQGSPASQGILQFDMWDQKPYGMWDWDTLRKDIMKHGVRNSLTMAPMPTASTSQILGYNECFEPVTSNMYSRRVLSGEFQVVNPYLLRDLVDLGIWDEGMKQYLITQNGSIQGLPNVPQELKDLYKTVWEISQKTIINMAADRSVYIDQSHSLNLFLRAPTMGKLTSMHFYGWKKGLKTGMYYLRTQAASAAIQFTIDQKIADQATENVADISNLKRPSYMPSSASYAASDFVPAAVTANATIPSLDSSSEASREASPAPTGSHSLTKGMAELNVQESKVEVPEVPAPTKNEEKAAPIVDDEETEFDIYNSKVIACAIDNPEACEMCSG
stoichiometry N [2]: 6

B3: hRRM1 D57N (enzyme, human, UniProt P23921 1-792, looked up)
chain: MHVIKRDGRQERVMFDKITSRIQKLCYGLNMDFVDPAQITMKVIQGLYSGVTTVELNTLAAETAATLTTKHPDYAILAARIAVSNLHKETKKVFSDVMEDLYNYINPHNGKHSPMVAKSTLDIVLANKDRLNSAIIYDRDFSYNYFGFKTLERSYLLKINGKVAERPQHMLMRVSVGIHKEDIDAAIETYNLLSERWFTHASPTLFNAGTNRPQLSSCFLLSMKDDSIEGIYDTLKQCALISKSAGGIGVAVSCIRATGSYIAGTNGNSNGLVPMLRVYNNTARYVDQGGNKRPGAFAIYLEPWHLDIFEFLDLKKNTGKEEQRARDLFFALWIPDLFMKRVETNQDWSLMCPNECPGLDEVWGEEFEKLYASYEKQGRVRKVVKAQQLWYAIIESQTETGTPYMLYKDSCNRKSNQQNLGTIKCSNLCTEIVEYTSKDEVAVCNLASLALNMYVTSEHTYDFKKLAEVTKVVVRNLNKIIDINYYPVPEACLSNKRHRPIGIGVQGLADAFILMRYPFESAEAQLLNKQIFETIYYGALEASCDLAKEQGPYETYEGSPVSKGILQYDMWNVTPTDLWDWKVLKEKIAKYGIRNSLLIAPMPTASTAQILGNNESIEPYTSNIYTRRVLSGEFQIVNPHLLKDLTERGLWHEEMKNQIIACNGSIQSIPEIPDDLKQLYKTVWEISQKTVLKMAAERGAFIDQSQSLNIHIAEPNYGKLTSMHFYGWKQGLKTGMYYLRTRPAANPIQFTLNKEKLKDKEKVSKEEEEKERNTAAMVCSLENRDECLMCGS
stoichiometry N (SEC [3]): 2
stoichiometry N (SEC [4]): 6

B4
stoichiometry N (SEC [5]): 6

B5: yeast RR2●RR4 hetero-dimer (ScRR2●ScRR4) (complex, S. cerevisiae)
chain 1: MPKETPSKAAADALSDLEIKDSKSNLNKELETLREENRVKSDMLKEKLSKDAENHKAYLKSHQVHRHKLKEMEKEEPLLNEDKERTVLFPIKYHEIWQAYKRAEASFWTAEEIDLSKDIHDWNNRMNENERFFISRVLAFFAASDGIVNENLVENFSTEVQIPEAKSFYGFQIMIENIHSETYSLLIDTYIKDPKESEFLFNAIHTIPEIGEKAEWALRWIQDADALFGERLVAFASIEGVFFSGSFASIFWLKKRGMMPGLTFSNELICRDEGLHTDFACLLFAHLKNKPDPAIVEKIVTEAVEIEQRYFLDALPVALLGMNADLMNQYVEFVADRLLVAFGNKKYYKVENPFDFMENISLAGKTNFFEKRVSDYQKAGVMSKSTKQEAGAFTFNEDF
chain 2: MEAHNQFLKTFQKERHDMKEAEKDEILLMENSRRFVMFPIKYHEIWAAYKKVEASFWTAEEIELAKDTEDFQKLTDDQKTYIGNLLALSISSDNLVNKYLIENFSAQLQNPEGKSFYGFQIMMENIYSEVYSMMVDAFFKDPKNIPLFKEIANLPEVKHKAAFIERWISNDDSLYAERLVAFAAKEGIFQAGNYASMFWLTDKKIMPGLAMANRNICRDRGAYTDFSCLLFAHLRTKPNPKIIEKIITEAVEIEKEYYSNSLPVEKFGMDLKSIHTYIEFVADGLLQGFGNEKYYNAVNPFEFMEDVATAGKTTFFEKKVSDYQKASDMSKSATPSKEINFDDDF
binding result [6]: binds
